Results from patent US20250075002A1 (BEIGENE SWITZERLAND, published 2025).
Like-named read-outs stand apart in the source and are kept apart here.

Tests used:
human CD16B-His6 (SH) = molecular target: T1, human CD16B-His6 (SH) (human, UniProt O75015 17-200); experiment: antigen ELISA, coated Human CD16B (SH), HRP anti-human IgG
T1 construct: Bought ECD fragment; also called CD16B SH allotype; human CD16B (SH); not shown: six-histidine tag (His6)

[1] = molecular target: T2, human CD16A (V158) on NK92mi cells (human, UniProt P08637 17-254); experiment: flow cytometry on NK92mi/CD16A cells (V158 by paragraph 201)
T2 construct: NK92mi cells co-transduced with CD16A (V158) and FcRgamma cDNAs; also called NK92mi/CD16A V158; NK92mi/CD16A

[2] = molecular target: T3, human CD16B (NA2) on NK92mi cells (human, UniProt O75015 17-200); experiment: flow cytometry on NK92mi/CD16B (NA2) cells
T3 construct: also called NK92mi/CD16B (NA2); NK92mi/CD16B NA2
T3 chain: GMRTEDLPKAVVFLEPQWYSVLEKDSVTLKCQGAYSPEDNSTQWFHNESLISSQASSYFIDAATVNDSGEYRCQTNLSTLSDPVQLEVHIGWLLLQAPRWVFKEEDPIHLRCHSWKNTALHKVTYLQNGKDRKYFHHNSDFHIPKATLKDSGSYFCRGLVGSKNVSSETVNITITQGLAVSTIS

human CD16A-His6 (V158) [3] = molecular target: T4, human CD16A-His6 (V158) (human, UniProt P08637 17-208); experiment: antigen ELISA, coated Human CD16A (V158), HRP anti-human IgG; one concentration (paragraph 202 prints 1 mg/ml)
T4 construct: Bought (Sino Biologics) ECD fragment; also called CD16A 158V; human CD16A (V158); not shown: six-histidine tag (His6)

cyno CD16-His6 [4] = molecular target: T5, cyno CD16-His6 (cyno, UniProt Q8SPW2 17-208); experiment: antigen ELISA, coated Cyno CD16, HRP anti-human IgG; one concentration (paragraph 202 prints 1 mg/ml)
T5 construct: Bought ECD fragment; not shown: six-histidine tag (His6)
T5 sequence (Q8SPW2 17-208): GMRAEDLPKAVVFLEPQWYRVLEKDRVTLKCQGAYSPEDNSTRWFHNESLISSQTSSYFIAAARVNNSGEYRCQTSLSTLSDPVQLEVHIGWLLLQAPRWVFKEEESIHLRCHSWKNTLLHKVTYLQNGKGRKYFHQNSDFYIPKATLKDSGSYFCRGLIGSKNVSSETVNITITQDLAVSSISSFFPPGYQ

[5] = molecular target: T6, human CD16B (NA1) on NK92mi cells (human, UniProt O75015 17-200); experiment: flow cytometry on NK92mi/CD16B (NA1) cells; fit not meaningful
T6 construct: also called NK92mi/CD16B (NA1); NK92mi/CD16B NA1
T6 chain: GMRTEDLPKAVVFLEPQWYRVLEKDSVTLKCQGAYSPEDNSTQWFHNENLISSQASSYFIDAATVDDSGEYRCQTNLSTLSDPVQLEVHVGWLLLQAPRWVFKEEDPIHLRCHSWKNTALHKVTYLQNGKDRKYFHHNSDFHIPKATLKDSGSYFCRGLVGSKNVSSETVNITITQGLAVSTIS

human CD16A-His6 (V158) [6] = molecular target: T4, human CD16A-His6 (V158); experiment: SPR; VHH-Fc captured on anti-human Fc surface; row head prints 'KD (nM)', koff/kon shows M
human CD16A-His6 (F158) [7] = molecular target: T7, human CD16A-His6 (F158) (human, UniProt P08637 17-208); experiment: as above
T7 construct: Bought ECD fragment; also called human CD16A (F158); not shown: six-histidine tag (His6)

[8] = molecular target: T8, human CD16A (F158) on NK92mi cells (human, UniProt P08637 17-254); experiment: flow cytometry, biotinylated VHH-Fc on NK92mi/CD16A 158F cells, without human IgG1 (CB6)
T8 construct: NK92mi cells co-transduced with CD16A (F158) and FcRgamma cDNAs; also called NK92mi/CD16A F158

[9] = molecular target: T6, human CD16B (NA1) on NK92mi cells; experiment: flow cytometry on live NK92mi/CD16B NA1 cells, 300 nM VHH-Fc
human CD16A-His6 (V158) [10] = molecular target: T4, human CD16A-His6 (V158); experiment: SPR; VHH-Fc captured on anti-human Fc surface
human CD16A-His6 (F158) [11] = molecular target: T7, human CD16A-His6 (F158); experiment: SPR; VHH-Fc captured on anti-human Fc surface
human CD16B-His6 (NA2) [12] = molecular target: T9, human CD16B-His6 (NA2) (human, UniProt O75015 17-200); experiment: SPR; VHH-Fc captured on anti-human Fc surface; row head prints 'KD (nM)', taken as M like the rest of the table
T9 construct: Bought ECD fragment; also called CD16B NA2; human CD16B (NA2); not shown: six-histidine tag (His6)
T9 chain: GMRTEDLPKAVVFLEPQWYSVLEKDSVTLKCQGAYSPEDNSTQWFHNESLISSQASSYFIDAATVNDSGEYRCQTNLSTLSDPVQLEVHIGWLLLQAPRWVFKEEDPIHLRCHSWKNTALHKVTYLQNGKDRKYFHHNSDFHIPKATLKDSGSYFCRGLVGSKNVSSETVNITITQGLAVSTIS

human CD16B-His6 (NA1) [13] = molecular target: T10, human CD16B-His6 (NA1) (human, UniProt O75015 17-200); experiment: as above
T10 construct: Bought ECD fragment; also called CD16B NA1; human CD16B (NA1); not shown: six-histidine tag (His6)
T10 chain: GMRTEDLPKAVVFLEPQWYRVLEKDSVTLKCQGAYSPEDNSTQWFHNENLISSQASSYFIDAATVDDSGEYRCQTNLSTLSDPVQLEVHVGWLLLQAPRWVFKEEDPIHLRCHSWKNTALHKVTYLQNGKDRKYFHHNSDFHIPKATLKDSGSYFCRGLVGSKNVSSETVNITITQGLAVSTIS

human CD16A-His6 (V158) [14] = molecular target: T4, human CD16A-His6 (V158); experiment: SPR; VHH-Fc captured on anti-human Fc surface; row head prints 'KD (nM)', koff/kon shows M; remark: listed apart in the source
human CD16A-His6 (F158) [15] = molecular target: T7, human CD16A-His6 (F158); experiment: as above; remark: listed apart in the source
[16] = molecular target: T8, human CD16A (F158) on NK92mi cells; experiment: flow cytometry, biotinylated VHH-Fc on NK92mi/CD16A 158F cells, with 10 mg/ml human IgG1 CB6 as competitor
cyno CD16-His6 [17] = molecular target: T5, cyno CD16-His6; experiment: SPR; VHH-Fc captured on anti-human Fc surface
human CD16B-His6 (NA2) [18] = molecular target: T9, human CD16B-His6 (NA2); experiment: SPR; VHH-Fc captured on anti-human Fc surface; row head prints 'KD (nM)', taken as M like the rest of the table
human CD16B-His6 (NA1) [19] = molecular target: T10, human CD16B-His6 (NA1); experiment: as above
[20] = molecular target: T6, human CD16B (NA1) on NK92mi cells; experiment: flow cytometry, NK92mi/CD16B (NA1) against NK92mi/CD16A cells (weaker on CD16B)
[21] = molecular target: T3, human CD16B (NA2) on NK92mi cells; experiment: flow cytometry on live NK92mi/CD16B NA2 cells, 300 nM VHH-Fc
[22] = molecular target: T8, human CD16A (F158) on NK92mi cells; experiment: flow cytometry on live NK92mi/CD16A 158F cells
[23] = molecular target: T8, human CD16A (F158) on NK92mi cells; experiment: flow cytometry on NK92mi/CD16A 158F cells
cyno CD16-His6 [24] = molecular target: T5, cyno CD16-His6; experiment: SPR; VHH-Fc captured on anti-human Fc surface; column head prints 'KD (nM)', koff/kon shows M
[25] = molecular target: T6, human CD16B (NA1) on NK92mi cells; experiment: flow cytometry on NK92mi/CD16B (NA1) cells
human CD16A-His6 (V158) [26] = molecular target: T4, human CD16A-His6 (V158); experiment: SPR; VHH-Fc captured on anti-human Fc surface; remark: listed apart in the source
human CD16A-His6 (F158) [27] = molecular target: T7, human CD16A-His6 (F158); experiment: SPR; VHH-Fc captured on anti-human Fc surface; remark: listed apart in the source

B1: LS21 (scFv)
scFv: EVQLVQSGAEVKKPGESLKVSCKASGYTFTSYYMHWVRQAPGQGLEWMGIINPSGGSTSYAQKFQGRVTMTRDTSTSTVYMELSSLRSEDTAVYYCARGSAYYYDFADYWGQGTLVTVSSGGGGSGGGGSGGGGSQPVLTQPSSVSVAPGQTATISCGGHNIGSKNVHWYQQRPGQSPVLVIYQDNKRPSGIPERFSGSNSGNTATLTISGTQAMDEADYYCQVWDNYSVLFGGGTKLTVL
- binding result (human CD16B-His6 (SH)): no binding
- EC50 [1]: 1.04 µg/mL
- EC50 [2]: 0.136 µg/mL
- binding result (human CD16A-His6 (V158) [3]): binds
- binding result (cyno CD16-His6 [4]): binds
- EC50 [5]: ~155000 µg/mL

B2: BG523P (VHH-Fc) (VHH)
chain: QVQLVESGGGVVQPGGSLTLSCEASGRTFGSYAVGWFRQALGRGREFVAAIRRSDGTTDYVDSVKGRFTISRDNAKNTVYLQMNSLKPEDTAVYYCAASDSDYEPLGDYWGQGTQVTVSSEPKSSDKTHTCPPCPAPPAAGPSVFLFPPKPKDTLMISRTPEVTCVVVDVSHEDPEVKFNWYVDGVEVHNAKTKPREEQYNSTYRVVSVLTVLHQDWLNGKEYKCKVSNKALAAPIEKTISKAKGQPREPQVYTLPPSREEMTKNQVSLTCLVKGFYPSDIAVEWESNGQPENNYKTTPPVLDSDGSFFLYSKLTVDKSRWQQGNVFSCSVMHEALHNHYTQKSLSLSPGK
notes: Alpaca anti-CD16A VHH fused to a C-terminal human IgG1 mf Fc tag (VHH-Fc); also called parental clone
- Kd (human CD16A-His6 (V158) [6]): 0.408 nM
- Kd (human CD16A-His6 (F158) [7]): 0.402 nM
- EC50 [8]: 1.19 nM
- EMAX (MFI) [8]: 22100 MFI
- Binding signal at 300 nM (MFI) [9]: 577 MFI
- koff (human CD16A-His6 (V158) [10]): 0.000113 s⁻¹
- kon (human CD16A-His6 (V158) [10]): 276000 M⁻¹ s⁻¹
- koff (human CD16A-His6 (F158) [11]): 0.000128 s⁻¹
- kon (human CD16A-His6 (F158) [11]): 319000 M⁻¹ s⁻¹
- Kd (human CD16B-His6 (NA2) [12]): 4950 nM
- Kd (human CD16B-His6 (NA1) [13]): 1760 nM
- Kd (human CD16A-His6 (V158) [14]): 0.222 nM
- Kd (human CD16A-His6 (F158) [15]): 0.353 nM
- EC50 [16]: 6.57 nM
- EMAX (MFI) [16]: 21300 MFI
- koff (cyno CD16-His6 [17]): 8.09e-05 s⁻¹
- kon (cyno CD16-His6 [17]): 280000 M⁻¹ s⁻¹
- Kd (human CD16B-His6 (NA2) [18]): 4260 nM
- Kd (human CD16B-His6 (NA1) [19]): 1700 nM
- EC50 [1]: 0.242 µg/mL
- fold change of EC50 against CD16A binding [20]: ~40 fold
- EC50 [2]: 28.9 µg/mL
- Binding signal at 300 nM (MFI) [21]: 65 MFI
- EC50 [22]: 15.1 nM
- EC50 [23]: 10.6 nM
- EMAX (MFI) [23]: 9920 MFI
- Kd (cyno CD16-His6 [24]): 0.289 nM
- EC50 [25]: 9.52 µg/mL
- koff (human CD16A-His6 (V158) [26]): 6.22e-05 s⁻¹
- kon (human CD16A-His6 (V158) [26]): 280000 M⁻¹ s⁻¹
- koff (human CD16A-His6 (F158) [27]): 7.88e-05 s⁻¹
- kon (human CD16A-His6 (F158) [27]): 224000 M⁻¹ s⁻¹
